Target: nsp16 (2'-O-methyltransferase);nsp10 (SARS-CoV-2;SARS-CoV-2, UniProt P0DTD1;P0DTD1 6799-7096;4254-4392, |)
Assay: competition

ACCCCC (ssRNA, 5' N7-methylguanosine cap (m7Gppp, cap-0); cap G not in strand) [Biotin-RNA N7-meGpppACCCCC-Biotin]
apparent K (half saturation): 4.3 µM

— article doi:10.1101/2020.10.14.340034
